In US12065466B2, “Methods and compositions for protein sequencing” (Quantum-Si Incorporated, priority 2020, dated 2024):

B1: PS549: PS372-homologous ClpS protein, SEQ ID NO: 63 (protein, listed as Planctomycetes bacterium)
chain: MSESITTLPKKSRRLKEEEEQKTKRQPPYNVILLNDDDHTFEYVIFMLQKLFGHPPERGMQMAKEVHTTGRVIVMTTALELAELKRDQIHAFGPDPLIDRCKGSMSATIEPAPI
B2: PS552: PS372-homologous ClpS protein, SEQ ID NO: 66 (protein)
chain: MSKTSTLPEVESESAQKLKYQPPYHVILLNDDDHSYVYVITMLKELFGHPEQKGYQLADAVDKQGRAIVFTTTREHAELKQEQIHAYGPDPTIPRCKGAMTAVIEPAE
modifications: Fimbriiglobus ruber
B3: PS430: ClpS protein, SEQ ID NO: 53 (protein)
chain: MQPFEETYTDVLDEVVDTDVHNLVVFNDDVNTFDHVIETLIDVCKHTPEQAEQCTLLIHYKGKCSVKNGSWEELVPMRNEICRRGISAEVLK
B4: PS563: PS372-homologous ClpS protein, SEQ ID NO: 77 (protein, listed as Acidobacteria bacterium)
chain: MSSRSATAYPEVEDDTSDQLQPLYHVILLNDEDHTYDYVIEMLQKIFGFPESKAFSHAVEVDTKGTTILLTCDLEQAERKRDLIHSYGPDWRLPRSLGSMAAVVEPAAG
B5: PS560: PS372-homologous ClpS protein, SEQ ID NO: 74 (protein, listed as Planctomycetes bacterium)
chain: MTETITTPAERTQTQAEPRSDRAWLWNVVLLDDDEHTYEYVIRMLHTLFGMPVERAFRLAEEVDARGRAVVLTTHKEHAELKRDQVHAFGKDALIASCAGSMSAVLEPAECGSDDED
B6: PS550: PS372-homologous ClpS protein, SEQ ID NO: 64 (protein, listed as Planctomycetes bacterium)
chain: MPTFTEPEVVNDTRILPPYHVILLNDDDHTYEYVIHMLQTLFGHPQERGFQLAVEVDKKGKAIVFTTSKEHAEFKRDQIHAFGADPLSSKNCKGSMSAVIEPSF
B7: PS562: PS372-homologous ClpS protein, SEQ ID NO: 76 (protein, listed as Rubripirellula amarantea)
chain: MSDQQSMVAEPEVVVHTQDEKKLEKQNKRKKQPRYNVVLWDDTDHSYDYVVLMMKQLFHHPIETGFQIAKQVDKGGKAICLTTTMEHAELKRDQIHAFGKDDLIARCTGSMSATIEPVPE
B8: PS433: ClpS protein, SEQ ID NO: 56 (protein)
chain: MMSSLKECSIQALPSLDEKTKTEEDLSVPWKVIVLNDPVNLMSYVVMVFRKVFGYNENKATKHMMEVHQLGKSVLWTGQREEAECYAYQLQRWRLQTILEKDD
B9: PS432: ClpS protein, SEQ ID NO: 55 (protein)
chain: MIGVEARTSSAPELAIETEIRLAGLWHVIVINDPVNLMSYVVMVLRKIFGFDDTKARKHMLEVHENGRSIVWSGEREPAEAYANTLHQWHLSAVLERDETD
B10: PS559: PS372-homologous ClpS protein, SEQ ID NO: 73 (protein, listed as Planctomycetaceae bacterium)
chain: MNQAAISPNPDIKPNPSTHKKRASQRQPRYHVILWNDNDHTYHYVVTMLQKLFGHPPRTGIKMATEVDKKGKVIVLTTSREHAELKRDQIHAFGADKLIRRSKGAMAASIEPES
B11: PS434: ClpS protein, SEQ ID NO: 57 (protein)
chain: MSRLPWKQEAKFAATVIIDFPDATLEAPTIEKKEATEQQIEMPWNVVVHNDPVNLMSYVTMVFQRVFGYPRERAEKHMLEVHHSGRSILWSGLRERAELYVQQLHGYLLLATIEKTV
B12: PS551: PS372-homologous ClpS protein, SEQ ID NO: 65 (protein, listed as Rubrobacter indicoceani)
chain: MPSAAPAKPKTKRQSRTQGMPPYNVVLLDDDDHTYGYVIEMLNKVFGHPPEKGFELATEVDKNGRVIVMTTNLEVAELKRDEVHAFGPDPLMPRSKGSMSAVVERAG
B13: PS558: PS372-homologous ClpS protein, SEQ ID NO: 72 (protein, listed as Planctomycetes bacterium)
chain: MTATTADPDRTTAEKTTKKARRSGQPKRQPRYHVILWNDNDHTYQYVVAMLQQLFGHPATTGLKLATEVDRTGRAVILTTTREHAELKRDQIHAFGADRLLARSKGAMSASIEPEAE
B14: PS548: PS372-homologous ClpS protein, SEQ ID NO: 62 (protein, listed as Gemmataceae bacterium)
chain: MSDTITLPEEKTDVRTKRQPPYHVILLNDDDHTYQYVIYMLQTLFGHPPETGFKMAQEVDKTGRVIVDTTSLERAELKRDQIHAFGPDPYIERCKGSMSAMIEPSE
B15: PS427: ClpS protein, SEQ ID NO: 50 (protein)
chain: MSTKEKVKERVREKEAISFNNEIIVYNDDVNTFDHVIETLIRVCNHTPEQAEQCSLIVHYNGKCTVKTGSMDKLKPQCTQLLEAGLSAEIV
B16: PS547: PS372-homologous ClpS protein, SEQ ID NO: 61 (protein, listed as Gemmataceae bacterium)
chain: MGFPTDFRQSIEISTPLGSQQPRFSNASSEPALADPVLVINPRIQPRYHVILLNDDDHTYRYVIEMMLIVFGHPPEKGFLIAKEVDKAGRAICLTTSLEHAEFKQEQVHAYGADPYFGPKCKGSMTAVLEPAE
B17: PS554: PS372-homologous ClpS protein, SEQ ID NO: 68 (protein, listed as Planctomycetes bacterium)
chain: MSDSASATVEVQADPPADATARSQPTPARSTGSKPKRQPRYHVVLWNDDDHTYEYVIAMLRRLFGIEPEKGFRIAEEVDQSGRAVVLTTTREHAELKRDQIHAFGADRLLARSKGSMSASIEPEA
B18: PS435: ClpS protein, SEQ ID NO: 58 (protein)
chain: MTLSVALGPDTQESTQTGTAVSTDTLTAPDIPWNLVIWNDPVNLMSYVSYVFQSYFGYSETKANKLMMEVHKKGRSIVAHGSKEQVEQHAVAMHGYGLWATVEKATGGNSGGGKSGGPGKGKGKRG
B19: PS426: ClpS protein, SEQ ID NO: 49 (protein)
chain: MSIIEKTQENVAILEKVSINHEIILYNDDVNTFDHVIETLIRVCNHEELQAEQCAILVHYTGKCAVKTGSFDELQPLCLALLDAGLSAEIT
B20: PS561: PS372-homologous ClpS protein, SEQ ID NO: 75 (protein)
chain: MAELQTAVVEPTTRPEQDEKQSQSRPKRQPRYNVILWDDPDHSYDYVIMMLKELFGHPRQRGHQMAEEVDTTGRVICLTTTMEHAELKRDQIHAYGSDEGITRCKGSMSASIEPVPE
modifications: Roseimaritima sp. JC651
B21: PS374: ClpS protein, SEQ ID NO: 7 (protein)
chain: MRWEDPLAAEPVTPGVAPVVEEETDAAVETPWRVILYDDDIHTFEEVILQLMKATGCTPEQGERHAWTVHTRGKDCVYQGDFFDCFRVQGVLREIQLVTEIEG
B22: PS545: PS372-homologous ClpS protein, SEQ ID NO: 59 (protein, listed as Planctomycetales bacterium)
chain: MSEPMTLPAIPQPRLKERTQRQPPYNVILLNDDDHSYEYVIAMLQVLFGYPREKGYQMAKEVDSTGRVILLTTTREHAELKQEQIHAFGPDPLMARCQGSMTAVIEPAV
B23: PS553: PS372-homologous ClpS protein, SEQ ID NO: 67 (protein, listed as Planctomycetes bacterium)
chain: MPASASAVTEPPVSLPEAAAPRPKDRPKRQPRYHVILWNDDDHTYQYVVAMLRQLFGHPPEKGFTLAKQVDKDGRVVVLTTTKEHAELKRDQIHAFGADRLLARSKGSMSASIEPEASTG
B24: PS555: PS372-homologous ClpS protein, SEQ ID NO: 69 (protein)
chain: MADSAQTGVAEPIQETLRRRKLRDDRRPKRQPPYHVILWNDNDHTYAYVVVMLMQLFGYPAEKGYQLASEVDTQGRAVVLTTTKEHAELKRDQIHAYGKDGLIEKCKGSMWATIEPAPGE
modifications: Planctomycetes bacterium RBG_16_64_12
B25: PS556: PS372-homologous ClpS protein, SEQ ID NO: 70 (protein, listed as Blastopirellula marina)
chain: MGDSNTSVAEPGEVTVVTTKPAPKKAKPKRQPKYHVVLWNDDDHTYEYVILMMHELFGHPVEKGFQIAKTVDADGRAICLTTTKEHAELKRDQIHAYGKDELIARCRGSMSSTIEPEC
B26: PS546: PS372-homologous ClpS protein, SEQ ID NO: 60 (protein, listed as Planctomycetales bacterium)
chain: MSDTITLPGRPEVERDERTRRQPPYNVILHNDDDHTFEYVIVMLNQLFGYPPEKGYEMAKEVHLNGRVIVLTTSKEHAELKRDQIHAFGPDPFSSKDCKGSMSASIEPAY

Test system: amino acid at a terminal position of a polypeptide
Test: Amino acid binding preference of recognition proteins (Tables 1 and 2)
Settings: Table 1, ClpS proteins; amino acid identity at a terminal position of a polypeptide; inferred from literature and/or demonstrated by the inventors
Excerpt: It should be appreciated that these sequences and other examples described herein are meant to be non-limiting, and recognition molecules in accordance with the application can include any homologs, variants thereof, or fragments thereof minimally containing domains or subdomains responsible for peptide recognition.

Row | Molecule | Binding Pref.
1 | B1 | I, L, V
2 | B2 | I, L, V
3 | B3 | F, Y, W, L
4 | B4 | I, L, V
5 | B5 | I, L, V
6 | B6 | I, L, V
7 | B7 | I, L, V
8 | B8 | F, Y, W, L
9 | B9 | F, W
10 | B10 | I, L, V
11 | B11 | F, Y, W, L
12 | B12 | I, L, V
13 | B13 | I, L, V
14 | B14 | I, L, V
15 | B15 | F, W
16 | B16 | I, L, V
17 | B17 | I, L, V
18 | B18 | F, Y, W, L
19 | B19 | F, Y, W, L
20 | B20 | I, L, V
21 | B21 | F, Y, W, L
22 | B22 | I, L, V
23 | B23 | I, L, V
24 | B24 | I, L, V
25 | B25 | I, L, V
26 | B26 | I, L, V
